According to patent US20250176833A1:
pKd: −log10 of the molar value.

Assays:
[1] = biological target: Fc receptors on HL-60 cells; assay: flow cytometry, titration of IRDye680RD-labeled protein on HL-60 cells, non-linear fit of normalized MFI
[2] = biological target: Fc receptors on Mv4-11 cells; assay: flow cytometry, titration of IRDye680RD-labeled protein on Mv4-11 cells, non-linear fit of normalized MFI
[3] = biological target: Fc receptors on monocytes of human peripheral blood; assay: flow cytometry on human peripheral blood with immune panel, monocyte gate (CD14 vs Fc-680)
[4] = biological target: Fc receptors on granulocytes of human peripheral blood; assay: flow cytometry on human peripheral blood with immune panel, granulocyte gate (CD16 vs Fc-680)

Work on “control IgG, labeled with IRDye680RD (antibody)” yielded a pKd [1] of 8.30 and a pKd [2] of 8.77.
For “control scFv-Fc, labeled with IRDye680RD (Fc fusion)”, the pKd [1] was 8.68 and the pKd [2] was 8.82.
With “human IgG1 Fc domain (hinge, CH2 and CH3; expressed with IL2 signal sequence), labeled with IRDye680RD (from UniProt P0DOX5 218-449)” the percent of cells bound [3] was 25%, the percent of cells bound [4] was 33% and the pKd [1] was 8.44. It also gave a pKd [2] of 9.40.
